Results from PMC12337289, “Cryo-EM structure and polar assembly of the PS2 S-layer of Corynebacterium glutamicum” (Proceedings of the National Academy of Sciences of the …, 2025).

Key:
[1] = target: PS2 S-layer protein, ex vivo S-layer fragments from C. glutamicum ATCC13032 icd::cspB (C. glutamicum); experiment: cryo-EM structure; ex vivo PS2 S-layer fragments, 0.02% DDM added before plunging, tilted images at 15° and 30°, single-particle reconstruction with C6 symmetry; lattice of hexamers (C6) joined by trimeric (C3) contacts
[2] = target: the molecule itself; experiment: negative-stain electron microscopy of isolated S-layer sheets; isolated S-layer sheets (cleared SDS extractions of C. glutamicum; washed recombinant sheets from E. coli); lattice seen in the power spectrum; sheets also kept after incubation with 10 mM EDTA

Row | stoichiometry N [1] | Molecule | binding result [2]
1 | 6 | PS2 S-layer protein, ex vivo S-layer fragments from C. glutamicum ATCC13032 icd::cspB (natural protein) | –
2 | – | PS2 assembly domain (PS2^AD; residues 30 to 483), recombinant (domain or fragment, C. glutamicum, UniProt Q04985 30-483, looked up, PS2 (cspB) of C. glutamicum, residues 30 to 483; the membrane anchoring domain is replaced by a hexahistidine tag; Vector pASK-IBA3plus; also called recombinant soluble PS2^AD; plasmid A231; source: E. coli BL21 (DE3) cytoplasm, gel-like pelleted fraction, washed with 1% DDM and SEC buffer; not shown: hexahistidine, C-terminal, kept) AQETNPTFNITNGFNDADGSTIQPVGPVNHTEETLRDLTDSTGAYLEEFQNGTVEEIVEAYLQVQASADGFDPSEQAAYEAFEAARVRASQELAASAETITKTRESVAYALKVDQEATAAFEAYRNALRDAAISINPDGSINPDTSINLLIDAANAANRTDRAEIEDYAHLYTQTDIALETPQLAYAFQDLKALQAEVDADFEWLGEFGIDQEDGNYVQRYHLPAVEALKAEVDARVAAIEPLRADSIAKNLEAQKSDVLVRQLFLERATAQRDTLRVVEAIFSTSARYVELYENVENVNVENKTLRQHYSALIPNLFIAAVANISELNAADAEAAAYYLHWDTDLATNDEDEAYYKAKLDFAIETYAKILFNGEVWQEPLAYVQNLDAGARQEAADREAARAADEAYRAEQLRIAQEAADAQKAIAEALAKEAEGNNDNSSDNTETGSSDIGS | binds
